Assay results reported in paper PMC9941469.

Molecular target: phosphorylated Smad5 (pSmad5), mouse (UniProt P97454)
Assay: Co-Immunoprecipitation
Conditions: parent: est. 100; read off a plot

UniProt P97454, sequence (P97454 whole entry): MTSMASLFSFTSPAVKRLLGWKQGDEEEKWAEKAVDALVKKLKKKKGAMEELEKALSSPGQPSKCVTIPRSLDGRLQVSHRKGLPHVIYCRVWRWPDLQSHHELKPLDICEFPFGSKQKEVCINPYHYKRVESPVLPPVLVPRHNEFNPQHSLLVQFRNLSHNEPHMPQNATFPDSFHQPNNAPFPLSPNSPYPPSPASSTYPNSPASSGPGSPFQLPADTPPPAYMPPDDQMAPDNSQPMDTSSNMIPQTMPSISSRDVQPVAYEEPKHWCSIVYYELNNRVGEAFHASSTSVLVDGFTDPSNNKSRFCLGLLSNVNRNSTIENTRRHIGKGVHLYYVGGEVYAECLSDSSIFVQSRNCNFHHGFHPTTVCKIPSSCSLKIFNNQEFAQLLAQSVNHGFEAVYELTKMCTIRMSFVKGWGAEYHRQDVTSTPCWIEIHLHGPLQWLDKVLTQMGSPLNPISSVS

“Hoxd13 (homeobox D13), wild type, mouse (from UniProt P70217) R306L” was tested, and the percent of parent was 70 % of WT.
